Experiments:
[1] = ω-transaminase activity, reverse direction (7-aminoheptanoate to pimelate semialdehyde), L-alanine formation by RP-HPLC; format: biochemical; details: cell free extract, 10 mM 7-aminoheptanoate, 10 mM pyruvate, pH 7.5, 25° C., 4 h; FIG. 13
Procedure: (§1) A nucleotide sequence encoding an N-terminal His-tag was added to the nucleic acid sequences from Chromobacterium violaceum, Pseudomonas syringae, Rhodobacter sphaeroides, and Vibrio fluvialis encoding the ω-transaminases of SEQ ID NOs: 7, 9, 10 and 12, respectively (see FIG. 6) such that N-terminal HIS tagged ω-transaminases could be produced. Each of the resulting modified genes was cloned into a pET21a expression vector under control of the T7 promoter and each expression vector was transformed into a BL21[DE3] E. coli host. The resulting recombinant E. coli strains were cultivated at 37° C. in a 250 mL shake flask culture containing 50 mL LB media and antibiotic selection pressure, with shaking at 230 rpm. Each culture was induced overnight at 16° C. using 1 mM IPTG.
(§2) The pellet from each induced shake flask culture was harvested via centrifugation. Each pellet was resuspended and lysed via sonication. The cell debris was separated from the supernatant via centrifugation and the cell free extract was used immediately in enzyme activity assays.
Enzyme activity assays in the reverse direction (i.e., 7-aminoheptanoate to pimelate semialdehyde) were performed in a buffer composed of a final concentration of 50 mM HEPES buffer (pH=7.5), 10 mM 7-aminoheptanoate, 10 mM pyruvate and 100 μM pyridoxyl 5′ phosphate. Each enzyme activity assay reaction was initiated by adding cell free extract of the ω-transaminase gene product or the empty vector control to the assay buffer containing the 7-aminoheptanoate and incubated at 25° C. for 4 h, with shaking at 250 rpm. The formation of L-alanine from pyruvate was quantified via RP-HPLC.

[2] = ω-transaminase activity, forward direction (pimelate semialdehyde to 7-aminoheptanoate), pyruvate formation by RP-HPLC; format: biochemical; details: conclusion from reverse and forward assays of Example 1
Procedure: as §1, §2
Enzyme activity in the forward direction (i.e., pimelate semialdehyde to 7-aminoheptanoate) was confirmed for the transaminases of SEQ ID NO 9, SEQ ID NO 10 and SEQ ID NO 12. Enzyme activity assays were performed in a buffer composed of a final concentration of 50 mM HEPES buffer (pH=7.5), 10 mM pimelate semialdehyde, 10 mM L-alanine and 100 μM pyridoxyl 5′ phosphate. Each enzyme activity assay reaction was initiated by adding a cell free extract of the ω-transaminase gene product or the empty vector control to the assay buffer containing the pimelate semialdehyde and incubated at 25° C. for 4 h, with shaking at 250 rpm. The formation of pyruvate was quantified via RP-HPLC.

[3] = ω-transaminase activity, 7-aminoheptanol to 7-oxoheptanol, L-alanine formation by RP-HPLC; format: biochemical
Procedure: A nucleotide sequence encoding an N-terminal His-tag was added to the Chromobacterium violaceum, Pseudomonas syringae and Rhodobacter sphaeroides nucleic acids encoding the ω-transaminases of SEQ ID NOs: 7, 9 and 10, respectively (see FIG. 6) such that N-terminal HIS tagged ω-transaminases could be produced. The modified genes were cloned into a pET21a expression vector under the T7 promoter. Each expression vector was transformed into a BL21[DE3] E. coli host. Each resulting recombinant E. coli strain were cultivated at 37° C. in a 250 mL shake flask culture containing 50 mL LB media and antibiotic selection pressure, with shaking at 230 rpm. Each culture was induced overnight at 16° C. using 1 mM IPTG.
as §2
Enzyme activity assays in the reverse direction (i.e., 7-aminoheptanol to 7-oxoheptanol) were performed in a buffer composed of a final concentration of 50 mM HEPES buffer (pH=7.5), 10 mM 7-aminoheptanol, 10 mM pyruvate, and 100 μM pyridoxyl 5′ phosphate. Each enzyme activity assay reaction was initiated by adding cell free extract of the ω-transaminase gene product or the empty vector control to the assay buffer containing the 7-aminoheptanol and then incubated at 25° C. for 4 h, with shaking at 250 rpm. The formation of L-alanine was quantified via RP-HPLC.

[4] = literature reports; cited from earlier work
[5] = carboxylate reductase activity, pimelate to pimelate semialdehyde, NADPH consumption at 340 nm; format: biochemical; details: purified enzyme enhanced by sfp gene product, 2 mM pimelate, pH 7.5, room temperature, 20 min; FIG. 8
Procedure: A nucleotide sequence encoding a HIS-tag was added to the nucleic acid sequences from Segniliparus rugosus and Segniliparus rotundus that encode the carboxylate reductases of SEQ ID NOs: 4 (EFV11917.1) and 6 (ADG98140.1), respectively (see FIG. 6), such that N-terminal HIS tagged carboxylate reductases could be produced. Each of the modified genes was cloned into a pET Duet expression vector along with a sfp gene encoding a HIS-tagged phosphopantetheine transferase from Bacillus subtilis, both under the T7 promoter. Each expression vector was transformed into a BL21[DE3] E. coli host and the resulting recombinant E. coli strains were cultivated at 37° C. in a 250 mL shake flask culture containing 50 mL LB media and antibiotic selection pressure, with shaking at 230 rpm. Each culture was induced overnight at 37° C. using an auto-induction media.
The pellet from each induced shake flask culture was harvested via centrifugation. Each pellet was resuspended and lysed via sonication, and the cell debris was separated from the supernatant via centrifugation. […]
Enzyme activity assays (i.e., from pimelate to pimelate semialdehyde) were performed in triplicate in a buffer composed of a final concentration of 50 mM HEPES buffer (pH=7.5), 2 mM pimelate, 10 mM MgCl2, 1 mM ATP and 1 mM NADPH. […] The consumption of NADPH was monitored by absorbance at 340 nm. […]

[6] = carboxylate reductase activity, N7-acetyl-7-aminoheptanoate to N7-acetyl-7-aminoheptanal, NADPH consumption at 340 nm; format: biochemical; details: purified enzyme enhanced by sfp gene product, 2 mM N7-acetyl-7-aminoheptanoate, pH 7.5, room temperature, 20 min; FIG. 10
Procedure: The activity of each of the N-terminal His-tagged carboxylate reductases of SEQ ID NOs: 3, 5, and 6 (see Examples 2 and 3, and FIG. 6) for converting N7-acetyl-7-aminoheptanoate to N7-acetyl-7-aminoheptanal was assayed in triplicate in a buffer composed of a final concentration of 50 mM HEPES buffer (pH=7.5), 2 mM N7-acetyl-7-aminoheptanoate, 10 mM MgCl2, 1 mM ATP, and 1 mM NADPH. The assays were initiated by adding purified carboxylate reductase and phosphopantetheine transferase or the empty vector control to the assay buffer containing the N7-acetyl-7-aminoheptanoate then incubated at room temperature for 20 min. The consumption of NADPH was monitored by absorbance at 340 nm.

B1: SEQ ID NO 7: Chromobacterium violaceum ω-transaminase, Genbank Accession No. AAQ59697.1 (protein)
chain: MQKQRTTSQWRELDAAHHLHPFTDTASLNQAGARVMTRGEGVYLWDSEGNKIIDGMAGLWCVNVGYGRKDFAEAARRQMEELPFYNTFFKTTHPAVVELSSLLAEVTPAGFDRVFYTNSGSESVDTMIRMVRRYWDVQGKPEKKTLIGRWNGYHGSTIGGASLGGMKYMHEQGDLPIPGMAHIEQPWWYKHGKDMTPDEFGVVAARWLEEKILEIGADKVAAFVGEPIQGAGGVIVPPATYWPEIERICRKYDVLLVADEVICGFGRTGEWFGHQHFGFQPDLFTAAKGLSSGYLPIGAVFVGKRVAEGLIAGGDFNHGFTYSGHPVCAAVAHANVAALRDEGIVQRVKDDIGPYMQKRWRETFSRFEHVDDVRGVGMVQAFTLVKNKAKRELFPDFGEIGTLCRDIFFRNNLIMRACGDHIVSAPPLVMTRAEVDEMLAVAERCLEEFEQTLKARGLA
For B1, the “acceptance of 7-aminoheptanoate as substrate (conversion of pyruvate to L-alanine) against the empty vector control” value [1] was “accepted 7-aminoheptanote as substrate”, the “reversibility of ω-transaminase activity: pimelate semialdehyde accepted, 7-aminoheptanoate synthesized” value [2] was “accepted pimelate semialdehyde as substrate and synthesized 7-aminoheptanoate as a reaction product” and the “acceptance of 7-aminoheptanol as substrate (conversion of pyruvate to L-alanine) against the empty vector control” value ([3]; cell free extract, 10 mM 7-aminoheptanol, 10 mM pyruvate, pH 7.5, 25° C., 4 h, FIG. 17) was “accepted 7-aminoheptanol as substrate”. The “acceptance of 7-oxoheptanol as substrate forming 7-aminoheptanol, concluded from reversibility” value ([3]; inferred from reverse direction assay and Example 1) was “accept 7-oxoheptanol as substrate and form 7-aminoheptanol” and the “activity with 7-aminoheptanoate / 7-aminoheptanoic acid (to pimelate semialdehyde)” value [4] was “demonstrated analogous activity accepting 7-aminoheptanoic acid as amino donor”.

B2: SEQ ID NO: 4: Segniliparus rugosus carboxylate reductase, Genbank Accession No. EFV11917.1 (protein)
chain: MGDGEERAKRFFQRIGELSATDPQFAAAAPDPAVVEAVSDPSLSFTRYLDTLMRGYAERPALAHRVGAGYETISYGELWARVGAIAAAWQADGLAPGDFVATVGFTSPDYVAVDLAAARSGLVSVPLQAGASLAQLVGILEETEPKVLAASASSLEGAVACALAAPSVQRLVVFDLRGPDASESAADERRGALADAEEQLARAGRAVVVETLADLAARGEALPEAPLFEPAEGEDPLALLIYTSGSTGAPKGAMYSQRLVSQLWGRTPVVPGMPNISLHYMPLSHSYGRAVLAGALSAGGTAHFTANSDLSTLFEDIALARPTFLALVPRVCEMLFQESQRGQDVAELRERVLGGRLLVAVCGSAPLSPEMRAFMEEVLGFPLLDGYGSTEALGVMRNGIIQRPPVIDYKLVDVPELGYRTTDKPYPRGELCIRSTSLISGYYKRPEITAEVFDAQGYYKTGDVMAEIAPDHLVYVDRSKNVLKLSQGEFVAVAKLEAAYGTSPYVKQIFVYGNSERSFLLAVVVPNAEVLGARDQEEAKPLIAASLQKIAKEAGLQSYEVPRDFLIETEPFTTQNGLLSEVGKLLRPKLKARYGEALEARYDEIAHGQADELRALRDGAGQRPVVETVVRAAVAISGSEGAEVGPEANFADLGGDSLSALSLANLLHDVFEVEVPVRIIIGPTASLAGIAKHIEAERAGASAPTAASVHGAGATRIRASELTLEKFLPEDLLAAAKGLPAADQVRTVLLTGANGWLGRFLALEQLERLARSGQDGGKLICLVRGKDAAAARRRIEETLGTDPALAARFAELAEGRLEVVPGDVGEPKFGLDDAAWDRLAEEVDVIVHPAALVNHVLPYHQLFGPNVVGTAEIIRLAITAKRKPVTYLSTVAVAAGVEPSSFEEDGDIRAVVPERPLGDGYANGYGNSKWAGEVLLREAHELVGLPVAVFRSDMILAHTRYTGQLNVPDQFTRLVLSLLATGIAPKSFYQQGAAGERQRAHYDGIPVDFTAEAITTLGAEPSWFDGGAGFRSFDVFNPHHDGVGLDEFVDWLIEAGHPISRIDDHKEWFARFETAVRGLPEAQRQHSLLPLLRAYSFPHPPVDGSVYPTGKFQGAVKAAQVGSDHDVPHLGKALIVKYADDLKALGLL
For B2, the “acceptance of pimelate as substrate (NADPH consumption) against the empty vector control” value [5] was “accepted pimelate as substrate”.

B3: SEQ ID NO 5: Mycobacterium abscessus subsp. bolletii (Mycobacterium massiliense) carboxylate reductase, Genbank Accession No. EIV11143.1 (protein)
chain: MTNETNPQQEQLSRRIESLRESDPQFRAAQPDPAVAEQVLRPGLHLSEAIAALMTGYAERPALGERARELVIDQDGRTTLRLLPRFDTTTYGELWSRTTSVAAAWHHDATHPVKAGDLVATLGFTSIDYTVLDLAIMILGGVAVPLQTSAPASQWTTILAEAEPNTLAVSIELIGAAMESVRATPSIKQVVVFDYTPEVDDQREAFEAASTQLAGTGIALETLDAVIARGAALPAAPLYAPSAGDDPLALLIYTSGSTGAPKGAMHSENIVRRWWIREDVMAGTENLPMIGLNFMPMSHIMGRGTLTSTLSTGGTGYFAASSDMSTLFEDMELIRPTALALVPRVCDMVFQRFQTEVDRRLASGDTASAEAVAAEVKADIRDNLFGGRVSAVMVGSAPLSEELGEFIESCFELNLTDGYGSTEAGMVFRDGIVQRPPVIDYKLVDVPELGYFSTDKPHPRGELLLKTDGMFLGYYKRPEVTASVFDADGFYMTGDIVAELAHDNIEIIDRRNNVLKLSQGEFVAVATLEAEYANSPVVHQIYVYGSSERSYLLAVVVPTPEAVAAAKGDAAALKTTIADSLQDIAKEIQLQSYEVPRDFIIEPQPFTQGNGLLTGIAKLARPNLKAHYGPRLEQMYAEIAEQQAAELRALHGVDPDKPALETVLKAAQALLGVSSAELAADAHFTDLGGDSLSALSFSDLLRDIFAVEVPVGVIVSAANDLGGVAKFVDEQRHSGGTRPTAETVHGAGHTEIRAADLTLDKFIDEATLHAAPSLPKAAGIPHTVLLTGSNGYLGHYLALEWLERLDKTDGKLIVIVRGKNAEAAYGRLEEAFDTGDTELLAHFRSLADKHLEVLAGDIGDPNLGLDADTWQRLADTVDVIVHPAALVNHVLPYNQLFGPNVVGTAEIIKLAITTKIKPVTYLSTVAVAAYVDPTTFDEESDIRLISAVRPIDDGYANGYGNAKWAGEVLLREAHDLCGLPVAVFRSDMILAHSRYTGQLNVPDQFTRLILSLIATGIAPGSFYQAQTTGERPLAHYDGLPGDFTAEAITTLGTQVPEGSEGFVTYDCVNPHADGISLDNFVDWLIEAGYPIARIDNYTEWFTRFDTAIRGLSEKQKQHSLLPLLHAFEQPSAAENHGVVPAKRFQHAVQAAGIGPVGQDGTTDIPHLSRRLIVKYAKDLEQLGLL
With B3 the “acceptance of N7-acetyl-7-aminoheptanoate as substrate (NADPH consumption) against the empty vector control” value [6] was “accepted N7-acetyl-7-aminoheptanoate as substrate”.

— patent publication US20160145657A1, “Methods and Materials for Producing 7-Carbon Chemicals via a C9 Route” (INVISTA North America S.á.r.l., priority 2014, published 2016)
